# T1: WT-IrtABΔSID heterodimer in LMNG (Mycolicibacterium thermoresistibile …, point mutant)
# T1 chain 1: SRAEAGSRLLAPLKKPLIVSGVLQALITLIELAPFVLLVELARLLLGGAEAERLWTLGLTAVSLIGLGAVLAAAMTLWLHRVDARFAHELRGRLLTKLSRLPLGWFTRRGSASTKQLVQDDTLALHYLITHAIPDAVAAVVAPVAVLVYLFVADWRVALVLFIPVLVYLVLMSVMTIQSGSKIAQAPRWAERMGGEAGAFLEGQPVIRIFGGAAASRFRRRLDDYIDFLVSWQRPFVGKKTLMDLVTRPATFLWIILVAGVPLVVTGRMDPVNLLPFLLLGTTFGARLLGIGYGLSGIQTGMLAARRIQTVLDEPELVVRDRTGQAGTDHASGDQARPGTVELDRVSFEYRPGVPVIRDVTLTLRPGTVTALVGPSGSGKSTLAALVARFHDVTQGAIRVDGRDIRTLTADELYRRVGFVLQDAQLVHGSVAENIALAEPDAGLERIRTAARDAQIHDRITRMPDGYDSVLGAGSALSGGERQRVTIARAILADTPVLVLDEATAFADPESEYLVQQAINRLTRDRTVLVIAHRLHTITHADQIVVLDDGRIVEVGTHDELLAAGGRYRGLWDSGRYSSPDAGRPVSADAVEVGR
# T1 chain 2: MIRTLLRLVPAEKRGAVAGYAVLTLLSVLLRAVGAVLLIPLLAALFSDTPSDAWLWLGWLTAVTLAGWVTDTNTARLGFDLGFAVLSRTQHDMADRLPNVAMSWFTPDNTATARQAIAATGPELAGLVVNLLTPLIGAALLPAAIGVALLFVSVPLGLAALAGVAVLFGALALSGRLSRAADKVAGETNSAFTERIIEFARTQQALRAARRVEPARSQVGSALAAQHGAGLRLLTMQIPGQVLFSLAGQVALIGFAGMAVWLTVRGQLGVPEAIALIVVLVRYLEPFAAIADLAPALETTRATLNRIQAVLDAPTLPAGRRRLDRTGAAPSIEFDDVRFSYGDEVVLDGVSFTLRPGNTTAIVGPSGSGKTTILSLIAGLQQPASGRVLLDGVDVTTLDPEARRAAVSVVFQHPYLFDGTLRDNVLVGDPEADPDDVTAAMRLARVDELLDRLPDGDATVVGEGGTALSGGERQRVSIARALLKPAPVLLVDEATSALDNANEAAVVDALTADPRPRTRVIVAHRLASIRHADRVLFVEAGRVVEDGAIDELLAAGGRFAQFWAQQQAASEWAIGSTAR
# B1: IrtAB-specific sybody SybNL5 (VHH)
# VHH: QVQLVESGGGLVQAGGSLRLSCAASGFPVSSSTMTWYRQAPGKEREWVAAINSYGYYTVYADSVKGRFTISRDNAKNTVYLQMNSLKPEDTAVYYCNVKDTGQMRESYDYWGQGTQVTVSA
# Columns and labels:
# [1] = target: Full-length WT-IrtAB heterodimer reconstituted in nanodiscs (Mycolicibacterium thermoresistibile …, UniProt G7CBF5;G7CBF6); test: cryo-EM structure
# [2] = target: T1, WT-IrtABΔSID heterodimer in LMNG; test: cryo-EM structure
binder,measurement,setting,value
B1,binding result,[1],binds
same,binding result,[2],binds

# — article PMC11779899 (Nature Communications, 2025)
